Source: US20050064507

Columns and labels:
[1] = molecular target: T1, WNK1 peptide KRHYRKSVRSRS (SEQ ID NO:179) (not fully specified)
T1 chain: KRHYRKSVRSRS

[2] = molecular target: T2, nucleolar phosphoprotein p130 peptide TKKKRGSYRGGS (SEQ ID NO:182) (not fully specified)
T2 chain: TKKKRGSYRGGS

[3] = molecular target: T3, CDC2L5 peptide SRRRSPSYSRHS (SEQ ID NO:214) (not fully specified)
T3 chain: SRRRSPSYSRHS

[4] = molecular target: T4, beta-arrestin2 peptide HKRNSVRLVIR (SEQ ID NO:191) (not fully specified)
T4 chain: HKRNSVRLVIR

[5] = molecular target: T5, serine/threonine-protein kinase PRP4 peptide GRRRRSRSKVK (SEQ ID NO:189) (not fully specified)
T5 chain: GRRRRSRSKVK

[6] = molecular target: T6, BTK peptide PGSSHRKTKK (SEQ ID NO:195) (not fully specified)
T6 chain: PGSSHRKTKK

[7] = molecular target: T7, CXCR4 peptide VSRGSSLKILSK (SEQ ID NO:212) (not fully specified)
T7 chain: VSRGSSLKILSK

[8] = molecular target: T8, casein kinase I gamma 2 peptide KRRKRKSLQRHK (SEQ ID NO:194) (not fully specified)
T8 chain: KRRKRKSLQRHK

[9] = molecular target: T9, IDN3 peptide VSRPRKSRKRVD (SEQ ID NO:208) (not fully specified)
T9 chain: VSRPRKSRKRVD

[10] = molecular target: T10, BCL10 peptide SCRTSSRKRAGK (SEQ ID NO:216) (not fully specified)
T10 chain: SCRTSSRKRAGK

[11] = molecular target: T11, SOLH peptide PLRRRESMHVEQ (SEQ ID NO:210) (not fully specified)
T11 chain: PLRRRESMHVEQ

[12] = molecular target: T12, Lyp peptide ILRPSKSVKLRS (SEQ ID NO:197) (not fully specified)
T12 chain: ILRPSKSVKLRS

[13] = molecular target: T13, WNK1 peptide RRRRPTKSKGSK (SEQ ID NO:198) (not fully specified)
T13 chain: RRRRPTKSKGSK

[14] = molecular target: T14, absent in melanoma 1 peptide RSGRRRGSQKS (SEQ ID NO:173) (not fully specified)
T14 chain: RSGRRRGSQKS

[15] = molecular target: T15, MAST3 peptide ARRSKRSRRRET (SEQ ID NO:183) (not fully specified)
T15 chain: ARRSKRSRRRET

[16] = molecular target: T16, CLK2 peptide RRRRRRSRTFSR (SEQ ID NO:177) (not fully specified)
T16 chain: RRRRRRSRTFSR

[17] = molecular target: T17, peptide EEAEHKATKARLADK (SEQ ID NO:75) (not fully specified)
T17 chain: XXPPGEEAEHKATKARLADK

[18] = molecular target: T18, supervillin peptide VMKRKFSLRAAE (SEQ ID NO:202) (not fully specified)
T18 chain: VMKRKFSLRAAE

[19] = molecular target: T19, HePTP peptide EQQRRALSFRQ (SEQ ID NO:200) (not fully specified)
T19 chain: EQQRRALSFRQ

[20] = molecular target: T20, PCTK2 peptide KKFKRRLSLTLR (SEQ ID NO:185) (not fully specified)
T20 chain: KKFKRRLSLTLR

[21] = molecular target: T21, serine/threonine-protein kinase PRP4 peptide TKKRSKSRSKER (SEQ ID NO:215) (not fully specified)
T21 chain: TKKRSKSRSKER

[22] = molecular target: T22, PSCDBP peptide FLRRSSSRRNRS (SEQ ID NO:180) (not fully specified)
T22 chain: FLRRSSSRRNRS

[23] = molecular target: T23, NPAT peptide FRASSRSTTK (SEQ ID NO:184) (not fully specified)
T23 chain: FRASSRSTTK

[24] = molecular target: T24, MAST3 peptide TQDRRKSLFKKI (SEQ ID NO:201) (not fully specified)
T24 chain: TQDRRKSLFKKI

[25] = molecular target: T25, BRCA1 peptide LRRKSSTRHIHA (SEQ ID NO:187) (not fully specified)
T25 chain: LRRKSSTRHIHA

[26] = molecular target: T26, SHP-1 peptide DKEKSKGSLKRK (SEQ ID NO:209) (not fully specified)
T26 chain: DKEKSKGSLKRK

[27] = molecular target: T27, BTK peptide ERGRRGSKKGSI (SEQ ID NO:188) (not fully specified)
T27 chain: ERGRRGSKKGSI

[28] = molecular target: T28, GRK6 peptide GNRKGKSKKWRQ (SEQ ID NO:192) (not fully specified)
T28 chain: GNRKGKSKKWRQ

[29] = molecular target: T29, serine/threonine-protein kinase PRP4 peptide RGRRSRSRLRRR (SEQ ID NO:199) (not fully specified)
T29 chain: RGRRSRSRLRRR

[30] = molecular target: T30, DAP-kinase 1 peptide KKRRTKSSRRGV (SEQ ID NO:175) (not fully specified)
T30 chain: KKRRTKSSRRGV

[31] = molecular target: T31, TIAM1 peptide AMSRSASKRRSR (SEQ ID NO:168) (not fully specified)
T31 chain: AMSRSASKRRSR

[32] = molecular target: T32, myosin IF peptide KKERRRNSINRN (SEQ ID NO:174) (not fully specified)
T32 chain: KKERRRNSINRN

[33] = molecular target: T33, LRMP peptide RFSRRSSSWRIL (SEQ ID NO:204) (not fully specified)
T33 chain: RFSRRSSSWRIL

[34] = molecular target: T34, DOCK2 peptide VKLRRSKKRTKR (SEQ ID NO:170) (not fully specified)
T34 chain: VKLRRSKKRTKR

[35] = molecular target: T35, ribosomal protein S6 peptide TGERKRKSVRG (SEQ ID NO:181) (not fully specified)
T35 chain: TGERKRKSVRG

[36] = molecular target: T36, CHD1 peptide EGRRSRSRRYSG (SEQ ID NO:205) (not fully specified)
T36 chain: EGRRSRSRRYSG

[37] = molecular target: T37, WNK1 peptide RRRRHTMDKDSR (SEQ ID NO:190) (not fully specified)
T37 chain: RRRRHTMDKDSR

B1: PKC-theta (protein)
chain: MSPFLRIGLSNFDCGSCQSCQGEAVNPYCAVLVKEYVESENGQMYIQKKPTMYPPWDSTFDAHINKGRVMQIIVKGKNVDLISETTVELYSLAERCRKNNGKTEIWLELKPQGRMLMNARYFLEMSDTKDMNEFETEGFFALHQRRGAIKQAKVHHVKCHEFTATFFPQPTFCSVCHEFVWGLNKQGYQCRQCNAAIHKKCIDKVIAKCTGSAINSRETMFHKERFKIDMPHRFKVYNYKSPTFCEHCGTLLWGLARQGLKCDACGMNVHHRCQTKVANLCGINQKLMAEALAMIESTQQARCLRDTEQIFREGPVEIGLPCSIKNEARPPCLPTPGKREPQGISWESPLDEVDKMCHLPEPELNKERPSLQIKLKIEDFILHKMLGKGSFGKVFLAEFKKTNQFFAIKALKKDVVLMDDDVECTMVEKRVLSLAWEHPFLTHMFCTFQTKENLFFVMEYLNGGDLMYHIQSCHKFDLSRATFYAAEIILGLQFLHSKGIVYRDLKLDNILLDKDGHIKIADFGMCKENMLGDAKTNTFCGTPDYIAPEILLGQKYNHSVDWWSFGVLLYEMLIGQSPFHGQDEEELFHSIRMDNPFYPRWLEKEAKDLLVKLFVREPEKRLGVRGDIRQHPLFREINWEELERKEIDPPFRPKVKSPFDCSNFDKEFLNEKPRLSFADRALINSMDQNMFRNFSFMNPGMERLIS
in vitro phosphorylation (% of best substrate) [1]: 65 | in vitro phosphorylation (% of best substrate) [2]: 61 | in vitro phosphorylation (% of best substrate) [3]: 13 | in vitro phosphorylation (% of best substrate) [4]: 38 | in vitro phosphorylation (% of best substrate) [5]: 43 | in vitro phosphorylation (% of best substrate) [6]: 33 | in vitro phosphorylation (% of best substrate) [7]: 13 | in vitro phosphorylation (% of best substrate) [8]: 34 | in vitro phosphorylation (% of best substrate) [9]: 17 | in vitro phosphorylation (% of best substrate) [10]: 11 | in vitro phosphorylation (% of best substrate) [11]: 16 | in vitro phosphorylation (% of best substrate) [12]: 32 | in vitro phosphorylation (% of best substrate) [13]: 28 | in vitro phosphorylation (% of best substrate) [14]: 85 | in vitro phosphorylation (% of best substrate) [15]: 55 | in vitro phosphorylation (% of best substrate) [16]: 66 | Peptide phosphorylation by PKC-theta [17]: 0 | in vitro phosphorylation (% of best substrate) [18]: 24 | in vitro phosphorylation (% of best substrate) [19]: 26 | in vitro phosphorylation (% of best substrate) [20]: 51 | in vitro phosphorylation (% of best substrate) [21]: 12 | in vitro phosphorylation (% of best substrate) [22]: 65 | in vitro phosphorylation (% of best substrate) [23]: 54 | in vitro phosphorylation (% of best substrate) [24]: 25 | in vitro phosphorylation (% of best substrate) [25]: 48 | in vitro phosphorylation (% of best substrate) [26]: 17 | in vitro phosphorylation (% of best substrate) [27]: 44 | in vitro phosphorylation (% of best substrate) [28]: 35 | in vitro phosphorylation (% of best substrate) [29]: 27 | in vitro phosphorylation (% of best substrate) [30]: 80 | in vitro phosphorylation (% of best substrate) [31]: 100 | in vitro phosphorylation (% of best substrate) [32]: 83 | in vitro phosphorylation (% of best substrate) [33]: 22 | in vitro phosphorylation (% of best substrate) [34]: 98 | in vitro phosphorylation (% of best substrate) [35]: 62 | in vitro phosphorylation (% of best substrate) [36]: 22 | in vitro phosphorylation (% of best substrate) [37]: 40
